The target of assay [1] is T1, platelet-derived growth factor (PDGF)-BB (human, UniProt P01127 82-190). Briefly: cell-based or functional assay.
The target in assay [2] is T2, vascular endothelial growth factor (VEGF)-A165 (human, UniProt P15692-4 27-191). The experiment in a line: cell-based or functional assay.
For assay [3], the target named is T3, vascular endothelial growth factor (VEGF)-A121 (human, UniProt P15692-9 27-147).
T3 construct: mature; Purchased in mature form, not glycosylated
T3 sequence (looked up): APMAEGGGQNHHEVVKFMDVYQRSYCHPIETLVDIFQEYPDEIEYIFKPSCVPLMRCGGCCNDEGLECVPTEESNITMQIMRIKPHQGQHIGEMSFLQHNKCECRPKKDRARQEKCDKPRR
The experiment in a line: ELISA, peptide coated. The procedure: (§1) (A) The location of laminin-derived peptides in the LG domain of laminin α3, α4, and α5 chains. (B-F) Affinity of heparin and GFs against chemically synthesized peptides derived from the LG domain of laminin α3, α4, and α5 chains. ELISA plates were coated with 10 μg/mL laminin peptide and further incubated with (B) biotinylated heparin, (C) VEGF-A165 and VEGF-A121, (D) PlGF-2 and PlGF-1, (E) PDGF-BB, or (F) FGF-2. Concentrations were 1 μg/mL for GFs and 10 μg/mL for heparin. Bound heparin was detected with streptavidin, and bound GFs with a specific antibody for each GF (n=4, mean±SEM). Statistical analyses were done using the Mann-Whitney U test by comparing the signals obtained from the laminin peptide- and the BSA-coated wells. *p<0.05, **p<0.01.
(§2) ELISA tests were performed as described above. […] 1 μg/mL of BSA served as non-binding protein control. After blocking with 2% BSA PBS-0.05% Tween 20 (PBS-T) solution, 1 μg/mL of the recombinant human proteins (VEGF-A121, VEGF-A165, PlGF-1, PlGF-2, PDGF-BB or FGF-2) or 10 μg/mL of biotinylated heparin (Sigma-Aldrich) were added. Bound GF was detected with biotinylated antibodies for human VEGF, PlGF, PDGF-BB, or FGF-2 (R&D Systems). The antibodies were detected by streptavidin-HRP (R&D Systems).

Assay [4] concerns the target T4, placental growth factor (PlGF)-1 (human, UniProt P49763-2 19-149).
T4 construct: mature; Purchased in mature form
T4 sequence (looked up): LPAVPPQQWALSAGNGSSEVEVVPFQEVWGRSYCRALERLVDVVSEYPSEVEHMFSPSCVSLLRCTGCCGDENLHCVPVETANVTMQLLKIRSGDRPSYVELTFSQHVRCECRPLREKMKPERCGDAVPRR
The experiment in a line: ELISA, peptide coated. The procedure: as §1, §2

Assay [5] concerns the target T5, placental growth factor (PlGF)-2 (human, UniProt P49763-3 19-170).
T5 construct: mature; Purchased in mature form
T5 sequence (looked up): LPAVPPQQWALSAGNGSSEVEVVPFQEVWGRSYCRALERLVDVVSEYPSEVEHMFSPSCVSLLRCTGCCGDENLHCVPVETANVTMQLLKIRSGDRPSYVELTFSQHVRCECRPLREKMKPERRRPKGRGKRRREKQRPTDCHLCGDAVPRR
The experiment in a line: ELISA, peptide coated, GF 1 µg/mL. On the procedure:
as §1, §2
For orientation: ELISA stands for enzyme-linked immunosorbent assay.

The target of assay [6] is T1, platelet-derived growth factor (PDGF)-BB. Briefly: ELISA, peptide coated, GF 1 µg/mL. On the procedure:
as §1, §2

Assay [7] addresses T6, fibroblast growth factor (FGF)-2 (human, UniProt P09038 143-288).
T6 construct: mature; Purchased in mature form
Briefly: ELISA, peptide coated, GF 1 µg/mL. On the procedure: as §1, §2

Assay [8] concerns the target T2, vascular endothelial growth factor …. The experiment in a line: ELISA, peptide coated, GF 1 µg/mL. The procedure: as §1, §2
Assay [9] deals with T7, recombinant human syndecan-1 (human, UniProt P18827 23-254, limits assumed).
T7 construct: Histidine tag of unstated position and length
T7 sequence (looked up): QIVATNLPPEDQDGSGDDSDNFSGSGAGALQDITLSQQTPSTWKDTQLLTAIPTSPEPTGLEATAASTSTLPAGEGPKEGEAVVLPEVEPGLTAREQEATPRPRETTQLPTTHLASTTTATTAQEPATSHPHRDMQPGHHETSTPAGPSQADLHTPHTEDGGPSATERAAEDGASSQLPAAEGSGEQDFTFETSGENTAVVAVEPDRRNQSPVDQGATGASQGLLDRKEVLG
The experiment in a line: ELISA, peptide coated, syndecan 1 µg/mL, anti-His detection. The procedure: (§3) ELISA tests were performed as described above. In brief, ELISA plates were coated with 1 μg/mL laminin peptide (sequences are described in Table 1, chemically synthesized by Genscript) in PBS for 2 hrs at 37° C. 1 μg/mL of BSA served as non-binding protein control. After blocking with 2% BSA PBS-T solution, 1 μg/mL of the recombinant human syndecan-1, syndecan-2, syndecan-3, syndecan-4 (all syndecan proteins are histidine-tagged; SinoBiological) were added. Bound GF was detected with anti-histidine tag antibody (1:1000 dilution, BioLegend).

Assay [10] has as its target T8, recombinant human syndecan-2 (human, UniProt P34741 19-144, limits assumed).
T8 construct: Histidine tag of unstated position and length
The assay is described as above. The procedure: as §3

For assay [11], the target named is T9, recombinant human syndecan-4 (human, UniProt P31431 19-145, limits assumed).
T9 construct: Histidine tag of unstated position and length
T9 sequence (looked up): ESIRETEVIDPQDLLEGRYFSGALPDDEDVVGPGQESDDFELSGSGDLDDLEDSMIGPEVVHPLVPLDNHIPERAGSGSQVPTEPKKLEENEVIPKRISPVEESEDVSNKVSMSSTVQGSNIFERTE
The description is as above. The procedure:
as §3

Another assay concerns the target T10, bovine type I collagen (bovine, UniProt P02453 178-1191; P02465 89-1102).
T10 construct: PureCol, Advanced BioMatrix; coated on the plate; also called collagen I; PureCol
The experiment in a line: ELISA, collagen I coated, 0.01-30 nM binder. The procedure: ELISA plates (NUNC MaxiSorp, ThermoFisher Scientific) were coated overnight with 10 μg/mL of bovine type I collagen (PureCol, Advanced BioMatrix, San Diego CA, USA) at room temperature. The plate was further blocked using 2% bovine serum albumine (BSA) for 2 h at room temperature. […] The plate was washed thrice in PBST, and an horseradish peroxidase-conjugated anti-human Fab antibody (Jackson ImmunoResearch,) was used to detect bound FabCol variants. […] Absorbance at 450 nm was read using […], and corrected using the absorbance at 570 nm. Curve fits and dissociation constant KD were computed using Prism (GraphPad Software Inc., USA).

In another assay the target is T11, recombinant human BMP-2 (human, UniProt P12643 283-396).
T11 construct: also called rhBMP-2
T11 sequence (P12643 283-396 limits assumed): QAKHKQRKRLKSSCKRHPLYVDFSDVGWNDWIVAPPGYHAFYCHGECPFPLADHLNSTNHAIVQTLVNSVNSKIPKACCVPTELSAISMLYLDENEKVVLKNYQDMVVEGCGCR
Briefly: ELISA, rhBMP-2 coated 50 nM, binder 50 nM.

Assay [12] deals with T5, placental growth factor (PlGF)-2. Briefly: ELISA; peptide coated (10 µg/mL, legend paragraph 53), 1 µg/mL PlGF-2 in solution, BSA-coated wells as control [panel D]. The procedure: as §1, §2
The target of assay [13] is T1, platelet-derived growth factor (PDGF)-BB. Briefly: ELISA; peptide coated (10 µg/mL, legend paragraph 53), 1 µg/mL PDGF-BB in solution, BSA-coated wells as control [panel E]. The procedure:
as §1, §2

Assay [14] deals with T3, vascular endothelial growth factor …. Briefly: ELISA; peptides and vWF forms coated at 50 nM, VEGF-A in solution, detected with anti-VEGF-A antibody [panel D]. On the procedure: (A) Diagram of exon sequence of VEGF-A showing inclusion (+) or exclusion (−) of heparin binding domain exons for the different VEGF-A isoforms. […] Bound VEGF-A was detected using a specific antibody for VEGF-A (n=4, mean±SD). Statistical comparisons were done using ANOVA with Tukey's test compared with BSA control. **p<0.01.
ELISA was performed as previously reported1. […] After blocking with 2% BSA solution containing PBS-T, 1 μg/mL of recombinant human VEGF-A121 (PeproTech), recombinant human VEGF-A145 (R & D Systems), or recombinant human VEGF-A165 (PeproTech) was added. Bound VEGF-A was detected with 1 μg/mL of mouse anti-human VEGF-A antibody (clone: 26503, R & D systems). After 60 min of incubation, horseradish peroxidase (HRP) conjugated goat anti-mouse antibody (1:2000 dilution, Dako) was added and incubated for another 60 min. Color development and the absorbance measurement were done as described above.

T6 sequence (P09038 143-288): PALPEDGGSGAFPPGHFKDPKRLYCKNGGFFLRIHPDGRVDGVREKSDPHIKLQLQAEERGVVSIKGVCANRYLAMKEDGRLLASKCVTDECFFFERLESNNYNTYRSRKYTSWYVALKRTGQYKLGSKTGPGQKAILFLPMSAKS
T8 sequence (P34741 19-144 limits assumed): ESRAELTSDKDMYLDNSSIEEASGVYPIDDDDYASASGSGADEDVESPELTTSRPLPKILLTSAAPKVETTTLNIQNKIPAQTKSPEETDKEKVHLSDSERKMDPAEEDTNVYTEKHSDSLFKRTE
T1 sequence (P01127 82-190): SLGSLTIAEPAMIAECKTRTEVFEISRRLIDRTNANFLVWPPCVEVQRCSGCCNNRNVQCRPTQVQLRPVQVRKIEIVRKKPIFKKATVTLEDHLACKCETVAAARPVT
T10 sequence (P02453 178-1191, chain 1 of 2): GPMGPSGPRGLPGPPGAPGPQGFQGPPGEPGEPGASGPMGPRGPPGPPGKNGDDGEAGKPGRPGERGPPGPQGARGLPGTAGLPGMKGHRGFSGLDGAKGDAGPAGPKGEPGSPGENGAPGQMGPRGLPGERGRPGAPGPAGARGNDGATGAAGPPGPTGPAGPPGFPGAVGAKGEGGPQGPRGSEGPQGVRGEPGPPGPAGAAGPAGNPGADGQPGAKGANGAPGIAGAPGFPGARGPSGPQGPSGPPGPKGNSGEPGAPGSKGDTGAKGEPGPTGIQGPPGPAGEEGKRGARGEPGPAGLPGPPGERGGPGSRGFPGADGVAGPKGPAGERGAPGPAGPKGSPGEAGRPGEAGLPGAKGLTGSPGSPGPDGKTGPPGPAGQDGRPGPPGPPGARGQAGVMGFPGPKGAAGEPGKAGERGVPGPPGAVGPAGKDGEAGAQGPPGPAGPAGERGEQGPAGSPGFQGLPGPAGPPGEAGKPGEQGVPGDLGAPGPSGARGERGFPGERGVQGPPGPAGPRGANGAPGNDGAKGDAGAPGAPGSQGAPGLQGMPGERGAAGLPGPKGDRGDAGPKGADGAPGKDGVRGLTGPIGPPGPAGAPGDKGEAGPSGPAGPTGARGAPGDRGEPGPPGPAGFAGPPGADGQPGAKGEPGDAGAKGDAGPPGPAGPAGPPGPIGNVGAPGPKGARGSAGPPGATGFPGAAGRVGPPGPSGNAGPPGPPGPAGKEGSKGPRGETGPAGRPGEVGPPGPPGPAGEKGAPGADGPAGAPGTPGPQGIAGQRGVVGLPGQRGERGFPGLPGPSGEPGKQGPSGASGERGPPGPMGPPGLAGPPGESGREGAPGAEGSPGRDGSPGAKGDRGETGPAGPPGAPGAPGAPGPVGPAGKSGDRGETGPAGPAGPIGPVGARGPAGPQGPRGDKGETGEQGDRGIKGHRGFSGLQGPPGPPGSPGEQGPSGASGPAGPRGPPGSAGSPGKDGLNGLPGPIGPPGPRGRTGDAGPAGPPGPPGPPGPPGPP
T10 sequence (P02465 89-1102, chain 2 of 2): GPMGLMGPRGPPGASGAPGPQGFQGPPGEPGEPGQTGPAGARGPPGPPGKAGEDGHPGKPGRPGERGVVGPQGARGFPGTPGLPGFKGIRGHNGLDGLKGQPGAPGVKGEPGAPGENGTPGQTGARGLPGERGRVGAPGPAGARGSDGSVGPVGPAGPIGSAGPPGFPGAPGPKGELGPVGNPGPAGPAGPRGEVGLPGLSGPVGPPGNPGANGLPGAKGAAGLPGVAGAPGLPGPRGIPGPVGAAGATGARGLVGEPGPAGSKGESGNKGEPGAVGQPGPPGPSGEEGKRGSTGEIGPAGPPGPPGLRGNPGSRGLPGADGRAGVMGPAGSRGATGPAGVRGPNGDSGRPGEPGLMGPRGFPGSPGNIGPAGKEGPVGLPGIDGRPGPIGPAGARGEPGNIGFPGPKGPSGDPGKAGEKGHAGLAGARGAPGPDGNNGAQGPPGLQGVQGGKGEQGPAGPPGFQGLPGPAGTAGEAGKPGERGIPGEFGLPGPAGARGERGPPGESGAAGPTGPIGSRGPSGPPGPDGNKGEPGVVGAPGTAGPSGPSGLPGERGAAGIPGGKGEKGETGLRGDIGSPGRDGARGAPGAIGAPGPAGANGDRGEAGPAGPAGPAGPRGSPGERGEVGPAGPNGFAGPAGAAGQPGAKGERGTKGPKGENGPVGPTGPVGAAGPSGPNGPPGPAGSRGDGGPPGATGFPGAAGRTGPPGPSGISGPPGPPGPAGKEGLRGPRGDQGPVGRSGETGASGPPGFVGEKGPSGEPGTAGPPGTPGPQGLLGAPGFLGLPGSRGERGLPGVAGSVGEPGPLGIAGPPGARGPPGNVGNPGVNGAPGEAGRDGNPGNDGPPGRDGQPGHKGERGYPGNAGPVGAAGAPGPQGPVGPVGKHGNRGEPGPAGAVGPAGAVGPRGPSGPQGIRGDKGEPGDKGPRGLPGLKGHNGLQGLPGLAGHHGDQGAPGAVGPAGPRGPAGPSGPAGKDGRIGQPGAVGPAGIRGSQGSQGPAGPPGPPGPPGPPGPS
Protocol for recombinant human BMP-2: ELISA plates (NUNC MaxiSorp) were coated with 50 nM of recombinant human BMP-2 (CHO produced, R&D Systems, Minneapolis MN, USA) overnight at room temperature.

As for NQEQVSPLRLVFALGTDGKKLRIKSKEKCNDGK [α2PI1-8-α3 3043-3067], the “cumulative release of GF from peptide-functionalized fibrin matrix after 5 days” value in assay [1] is 45%; in assay [2] it was 25%.
Turning to PLFLLHKKGKNLSKPKASQNKKGGKSK (Chemically synthesized (Genscript)) [laminin α4 1408-1434 peptide (Linker)], the binding result in assay [3] is on record as “no binding (tested: 1 µg/mL)”; in assay [4], “no binding (tested: 1 µg/mL)”; in assay [5] it was “binds”; in assay [6], “binds”; in [7] it was “binds”; in assay [8], “binds”. The binding result in assay [9], in assay [10] and in [11] was “binds” each time.

B1: FabCol-FgHBD conjugates (Fab)
light: EIVLTQSPGTLSLSPGERATLSCRASQSVSSSYLAWYQQKPGQAPRLLIYGASSRATGIPDRFSGSGSGTDFTLTISRLEPEDFAVYYCQQAIGFPQTFGQGTKVEIKRTVAAPSVFIFPPSDEQLKSGTASVVCLLNNFYPREAKVQWKVDNALQSGNSQESVTEQDSKDSTYSLSSTLTLSKADYEKHKVYACEVTHQGLSSPVTKSFNRGEC
heavy: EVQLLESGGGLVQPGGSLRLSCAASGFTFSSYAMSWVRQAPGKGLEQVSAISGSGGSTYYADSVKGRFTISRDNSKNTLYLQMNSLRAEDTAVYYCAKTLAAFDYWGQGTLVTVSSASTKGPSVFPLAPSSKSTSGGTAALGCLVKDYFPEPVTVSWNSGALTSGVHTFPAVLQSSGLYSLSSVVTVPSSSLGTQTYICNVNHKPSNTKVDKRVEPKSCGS
peptide: GCGGSLRPAPPPISGGGYRARPAKAAATQKKVERKAPDA
modifications: chemically conjugated to FabCol with sulfo-SMCC crosslinker; multiple copies per FabCol (shift of about 35 kDa)
notes: Chemical conjugate
One may read the Kd as a measure of binding affinity in units of concentration. Molecule B1 registered a Kd in the assay with bovine type I collagen of around 2.8 nM.
Consider NQEQVSPLRQRSRPGRWHKVSVRWEKNR [α2PI1-8-α5 3417-3436], for which the results for the “cumulative release of GF from peptide-functionalized fibrin matrix after 5 days” value in assay [1] and in assay [2] were 47% and 31%, respectively.
For the molecule RLVFALGTDGKKLRIKSKEKCNDGK (Chemically synthesized (Genscript)) [laminin α3 3043-3067 peptide (LG4)], the binding result in assay [3] is “no binding (tested: 1 µg/mL)”; in [4] it was “no binding (tested: 1 µg/mL)”; in assay [5] it was “binds”; in assay [6], “binds”; in [7], “binds”; in assay [8] it was “binds”. Further, the binding result in assay [9], in [10] and in assay [11] was “binds” each time.

B2: FabCol-p(FgHBD) recombinant fusion protein (Fab)
light: EIVLTQSPGTLSLSPGERATLSCRASQSVSSSYLAWYQQKPGQAPRLLIYGASSRATGIPDRFSGSGSGTDFTLTISRLEPEDFAVYYCQQAIGFPQTFGQGTKVEIKRTVAAPSVFIFPPSDEQLKSGTASVVCLLNNFYPREAKVQWKVDNALQSGNSQESVTEQDSKDSTYSLSSTLTLSKADYEKHKVYACEVTHQGLSSPVTKSFNRGECGAGGGSGGGHRPLDKKREEAPSLRPAPPPISGGGYRARPAKAAATQKKVERKAPDAGGGSGGGSGGGHRPLDKKREEAPSLRPAPPPISGGGYRARPAKAAATQKKVERKAPDAGGGSGGGSGGGHRPLDKKREEAPSLRPAPPPISGGGYRARPAKAAATQKKVERKAPDAGGGT
heavy: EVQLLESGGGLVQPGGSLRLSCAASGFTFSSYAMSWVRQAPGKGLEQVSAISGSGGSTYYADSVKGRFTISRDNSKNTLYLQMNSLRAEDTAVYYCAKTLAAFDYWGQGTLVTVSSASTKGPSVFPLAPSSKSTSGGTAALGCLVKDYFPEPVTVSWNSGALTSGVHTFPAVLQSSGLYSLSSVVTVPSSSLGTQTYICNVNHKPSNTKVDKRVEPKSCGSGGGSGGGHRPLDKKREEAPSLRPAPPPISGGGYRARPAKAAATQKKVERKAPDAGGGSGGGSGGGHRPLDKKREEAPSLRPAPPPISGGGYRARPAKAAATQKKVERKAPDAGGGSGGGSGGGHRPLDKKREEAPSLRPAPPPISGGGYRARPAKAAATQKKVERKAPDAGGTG
notes: Three repeats of FgHBD at the C-termini of both Fab chains
With B2, the binding result with recombinant human BMP-2 is reported as “binds”. In the assay with bovine type I collagen, the Kd is around 1.7 nM.
As to PPFLMLLKGSTRFNKTKTFR (Chemically synthesized (Genscript)) [laminin α3 2932-2951 peptide (Linker)], the binding result in [3] is listed as “no binding (tested: 1 µg/mL)”; in [4], “no binding (tested: 1 µg/mL)”; in assay [7], “binds”; in assay [8], “binds”; in assay [12] it was “binds”; in [13], “binds”.

B3: vWF A1 HBD (24 residues, C-terminal Cys) (peptide)
peptide: YIGLKDRKRPSELRRIASQVKYAC
notes: also the peptide coupled into the PEG matrix; also called vWF HBD-Cys; vWF A1 HBD peptide
As for B3, the binding result in [14] was “no binding (tested: 1 µg/mL VEGF-A121 (single concentration))”.
RQRSRPGRWHKVSVRWEKNR (Chemically synthesized (Genscript)) [laminin α5 3417-3436 peptide (LG4)]: the binding result is given as “no binding (tested: 1 µg/mL)” in [3]; “no binding (tested: 1 µg/mL)” in assay [4]; “binds” in assay [5]; “binds” in [6]; “binds” in assay [7]; “binds” in assay [8]. Besides, the binding result in [9], in [10] and in [11] was “binds” throughout.

These data come from US20240092867A1 (UNIVERSITY OF CHICAGO, published 2024).
